From patent US20240261333A1, “NOVEL TARGETS FOR ENHANCING ANTI-TUMOR IMMUNITY” (THE BROAD INSTITUTE, INC., priority 2021, published 2024)

T1: B3GNT2 (Homo sapiens, UniProt Q9NY97)
T1 construct: The respective ORFs of candidate genes [CD274 (NM_014143), MCL1 (NM_021960), JUNB (NM_002229), and B3GNT2 (NM_006577)] were synthesized; expressed in transfected cells; host or cells: A375 melanoma cells (lentiviral ORF overexpression)
T1 sequence (Q9NY97 1-397): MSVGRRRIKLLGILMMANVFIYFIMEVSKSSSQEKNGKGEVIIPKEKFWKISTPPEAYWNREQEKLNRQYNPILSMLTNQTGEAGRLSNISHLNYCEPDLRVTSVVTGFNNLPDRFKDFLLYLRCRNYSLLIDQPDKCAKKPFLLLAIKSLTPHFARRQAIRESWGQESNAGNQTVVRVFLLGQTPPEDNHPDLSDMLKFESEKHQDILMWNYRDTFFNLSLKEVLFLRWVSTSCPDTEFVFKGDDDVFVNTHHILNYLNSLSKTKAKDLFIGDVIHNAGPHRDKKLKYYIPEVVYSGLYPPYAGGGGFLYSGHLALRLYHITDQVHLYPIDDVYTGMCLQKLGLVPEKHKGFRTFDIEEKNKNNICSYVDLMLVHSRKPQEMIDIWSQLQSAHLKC

B1: TXN (protein)
chain: VKQIESKTAFQEALDAAGDKLVVVDFSATWCGPCKMIKPFFHSLSEKYSNVIFLEVDVDDCQDVASECEVKCMPTFQFFKKGQKVGEFSGANKEKLEATINELV
B2: KCTD5 (protein)
chain: AENHCELLSPARGGIGAGLGGGLCRRCSAGLGALAQRPGSVSKWVRLNVGGTYFLTTRQTLCRDPKSFLYRLCQADPDLDSDKDETGAYLIDRDPTYFGPVLNYLRHGKLVINKDLAEEGVLEEAEFYNITSLIKLVKDKIRERDSKTSQVPVKHVYRVLQCQEEELTQMVSTMSDGWKFEQLVSIGSSYNYGNEDQAEFLCVVSKELHNTPYGTASEPSEKAKILQERGSRM
B3: TAGLN (protein)
chain: ANKGPSYGMSREVQSKIEKKYDEELEERLVEWIIVQCGPDVGRPDRGRLGFQVWLKNGVILSKLVNSLYPDGSKPVKVPENPPSMVFKQMEQVAQFLKAAEDYGVIKTDMFQTVDLFEGKDMAAVQRTLMALGSLAVTKNDGHYRGDPNWFMKKAQEHKREFTESQLQEGKHVIGLQMGSNRGASQAGMTGYGRPRQIIS
B4: CDSN (protein)
chain: KSIGTFSDPCKDPTRITSPNDPCLTGKGDSSGFSSYSGSSSSGSSISSARSSGGGSSGSSSGSSIAQGGSAGSFKPGTGYSQVSYSSGSGSSLQGASGSSQLGSSSSHSGNSGSHSGSSSSHSSSSSSFQFSSSSFQVGNGSALPTNDNSYRGILNPSQPGQSSSSSQTFGVSSSGQSVSSNQRPCSSDIPDSPCSGGPIVSHSGPYIPSSHSVSGGQRPVVVVVDQHGSGAPGVVQGPPCSNGGLPGKPCPPITSVDKSYGGYEVVGGSSDSYLVPGMTYSKGKIYPVGYFTKENPVKGSPGVPSFAAGPPISEGKYFSSNPIIPSQSAASSAIAFQPVGTGGVQLCGGGSTGSKGPCSPSSSRVPSSSSISSSSGLPYHPCGSASQSPCSPPGTGSFSSSSSSQSSGKIILQPCGSKSSSSGHPCMSVSSLTLTGGPDGSPHPDPSAGAKPCGSSSAGKIPCRSIRDILAQVKPLGPQLADPEVFLPQGELLNSP
B5: POF1B (protein)
chain: MSSSYWSETSSSSCGTQQLPEVLQCQPQHYHCYHQSSQAQQPPEKNVVYERVRTYSGPMNKVVQALDPFNSREVLSPLKTTSSYQNLVWSDHSQELHSPTLKISTCAPSTLHITQNTEQELHSPTVKLTTYPQTTIRKYVVQNPEQEPLSQFLRGSHFFPGNNVIYEKTIRKVEKLNTDQGCHPQAQCHHHIIQQPQVIHSAHWQQPDSSQQIQAITGNNPISTHIGNELCHSGSSQICEQVIIQDDGPEKLDPRYFGELLADLSRKNTDLYHCLLEHLQRIGGSKQDFESTDESEDIESLIPKGLSEFTKQQIRYILQMRGMSDKSLRLVLSTFSNIREELGHLQNDMTSLENDKMRLEKDLSFKDTQLKEYEELLASVRANNHQQQQGLQDSSSKCQALEENNLSLRHTLSDMEYRLKELEYCKRNLEQENQNLRMQVSETCTGPMLQAKMDEIGNHYTEMVKNLRMEKDREICRLRSQLNQYHKDVSKREGSCSDFQFKLHELTSLLEEKDSLIKRQSEELSKLRQEIYSSHNQPSTGGRTTITTKKYRTQYPILGLLYDDYEYIPPGSETQTIVIEKTEDKYTCVSSLGHF

What follows are molecules tested against T1, B3GNT2 (assay: Co-IP of FLAG-tagged B3GNT2 followed by mass spectrometry). Details: Co-IP followed by mass spectrometry of B3GNT2; C-term tag, FLAG pull-down.
Type: cell-based
Set-up: C-term IgG / C-term flag: unit not given here
Protocol: Cells were plated in 10-cm cell culture dishes and grown to 60-80% confluency. For each condition, two biological replicates were harvested for co-IP. Cells were washed with PBS and 4 mL of lysis buffer (20 mM HEPES, 1% Triton X-100, 150 mM NaCl, 1 mM EDTA, and 10% glycerol) containing protease inhibitor cocktail was added. Cells were scraped and lysate was incubated at 4° C. under rotary agitation for 1 h. Lysate was centrifuged at 14,000×g for 10 min at 4° C. Supernatant was transferred to a new tube and an aliquot was taken as the input. […] For Western blots, 10 μg/mL Chicken Anti-FLAG (Aves labs ET-DY100) and IgY control (R&D Systems AB-101-C) antibodies were biotinylated (Thermo Fisher Scientific 90407) and added to the respective conditions. Lysates with antibodies were incubated at 4° C. under rotary agitation overnight. For each mL of lysate, 50 μL of Pierce Protein A/G Magnetic Beads (Mass spectrometry; Thermo Fisher Scientific 88803) or Pierce Streptavidin Magnetic Beads (Western blot; Thermo Fisher Scientific 88817) was washed twice with lysis buffer. Lysates with antibodies were added to the beads and incubated at 4° C. under rotary agitation for 4 h. Beads were washed with lysis buffer 3 times and resuspended in lysis buffer for storage. […] This solution was subjected to solid phase extraction to concentrate the peptides and remove unwanted reagents followed by injection onto a Shimadzu HPLC with fraction collector. Eight fractions were collected and after concentration were injected on a Waters NanoAcquity HPLC equipped with a self-packed Aeris 3 μm C18 analytical column 0.075 mm by 20 cm, (Phenomenex). Peptides were eluted using standard reverse-phase gradients. The effluent from the column was analyzed using a Thermo Orbitrap Elite mass spectrometer (nanospray configuration) operated in a data dependent manner for 54 minutes. […] Scaffold Q+S (Proteome Software) was used to provide consensus reports for the identified proteins.

C-term flag	Molecule
3	B1
3	B2
3	B3
0	B4
0	B5

Same assay, conditions: Co-IP followed by mass spectrometry of B3GNT2; C-term tag, IgG pull-down

C-term IgG	Molecule
0	B1
0	B2
0	B3
0	B4
0	B5

Same assay, conditions: Co-IP followed by mass spectrometry of B3GNT2; N-term tag, FLAG pull-down

N-term FLAG	Molecule
3	B1
2	B2
2	B3
5	B4
5	B5

Same assay, conditions: Co-IP followed by mass spectrometry of B3GNT2; N-term tag, IgG pull-down

N-term IgG	Molecule
3	B1
0	B2
0	B3
0	B4
0	B5
